# Laboratory results: the DeepSol protein solubility set
# Experiment: soluble on expression in E. coli; label from the status in PepcDB or PDB records
row,Sequence,soluble on expression in E. coli
1,MELKTSDVAARLGVSPKTIQRWVRKYDIPLRRNEAGHYLFDEKTVALLERVKFEQGAAMEAPPTPKRPPTPLRNNIPIDALHESIEPEIARVSSRLDQLERQLEQKADDVVSIQLLHHRQEMEEIVARLTALEQLVARLEQQLNTRPPAPHEPPEETKQKRRGLGRVMGLFA,not soluble
2,MELRAATKLTEEKYELKEGQTLDVKCDYTLEKFASSQKAWQIIRDGEMPKTLACTERPSKNSHPVQVGRIILEDYHDHGLLRVRMVNLQVEDSGLYQCVIYQPPKEPHMLFDRIRLVVTLEHHHHHH,soluble
3,MEMDLPVSAIGFEGFEKRLEISFVEPGLFADPNGKGLRSLSKAQLDEILGPAECTIVDNLSNDYVDSYVLSE,soluble
4,MEMNVAAPAAAVAGAAAPQPGQNQTGSSYTMASLYVGDLHPDVNESILFEKFSAAGPVLSIRVCRDNATRLSLGYAYVNFQQPADAERAMDTMNFEALHGKPMRIMWSQRDPAMRRSGAGNIFIKNLDKVIDNKSIYDTFSLFGNILSCKVAIDEDGFSKGYGFVHFETEEAAQNAIQKVNGMLLAGKKVFVGKFQPRAQRNRELGETAKQFTNVYVKNFGDHYNKETLEKLFAKFGNITSCEVMTVEGKSKGFGFVAFANPEEAETAVQALHDSTIEGTDLKLHVCRAQKKSERHAELKKKHEQHKAERMQKYQGVNLYVKNLDETVDDDGLKKQFESYGNITSAKVMTDENGRSKGFGFVCFEKPEEATSAVTEMNSKMVCSKPLYVAIAQRKEDRRAQLASQYMQRLASMRMHGNVPGAAMYNPTQPGPGYYVANPMQQQRNFAGGQQMVRPGGRWGMQNQYPVQNQYMMAQGPGVYQNRMGRPQNQQGGPRGPPQQYNQVAQGGVRMQGPPRTQNPGVQQQNVPRPPQQQQQQRPAPTGPKAPPQPYQAYQQRPQGIVIGGQEPLTSAMLAAAAPQEQKQLLGERIYALIEKLYPGHKDAGKITGMMLEIDNSELIMMLQDSELFRSKVDEAASVLVSAQKQ,not soluble
5,MENFPIISLDKVNGVERAATMEMIKDACENWGFFELVNHGIPREVMDTVEKMTKGHYKKCMEQRFKELVASKALEGVQAEVTDMDWESTFFLKHLPISNISEVPDLDEEYREVMRDFAKRLEKLAEELLDLLCENLGLEKGYLKNAFYGSKGPNFGTKVSNYPPCPKPDLIKGLRAHTDAGGIILLFQDDKVSGLQLLKDGQWIDVPPMRHSIVVNLGDQLEVITNGKYKSVMHRVIAQKDGARMSLASFYNPGSDAVIYPAPALVEKEAEENKQVYPKFVFDDYMKLYAGLKFQAKEPRFEAMKAMETDVKMDPIATV,soluble
6,MENNNGFADMADYLGKLSQVDATKLSIESLTAAANFYMEKLLPNIPKSLLKKKHMVDQVKVNIKDNEVQVAFEDTAFYWRFAENGTVNQKAQHFASGTFEQNKDQIEKIMTQQILDLWKG,soluble
7,MENNVESNLQPVPMRYGDKRYYSWNQHLREQFGEKVFKVPLDAGFDCPNRDGNVASGGCTFCSERGSGDFAGDRKDDLVTQFHTIKERMHKKWTSGKYIGYFQAYTNTYAPVETLREYYEVILEQEGVVGLAIATRPDCLPDDVVEYLAELNKRTYLWVELGLQTVHERTALLINRAHDYQCYVDGVNKLRKHGIRVCSHIINGLPLENHQMMMETAKEVAKLDVQGIKIHSLHLLKRTPMVKQYEKGLVEFMSLEEYVNLVVDQLEVLPPHMIIHRLMGDGPGDLMIGPMWSMKKWEVLNAIEAELERRDSWQGKHYRAQVEVQ,not soluble
8,MENPMNTDHTKRNLFELYAELIHQQEKWEGLIKAFLSDELRKLDVEHGSKSQLTMTEIHVLSCVGDNEPINVTSIAEKMNTTKATVSRISTKLLGAGFLHRTQLSDNKKEVYFRLTPAGKKLHSLHKYYHQKAEQRFLSFFDRYTEEEILFAERLFRDLVTKWYPSSEEIEGGLPSIFK,not soluble
9,MENRPVNIVLPKIENPILIEGYPGIGLVGHIAANFLAKELKMEVIGYVESSFIPPMSLILEGKPNPPLRFYGKDNIIIAVADIYLPPTLINEIAKEIANYLEQNKAEKVISLGGMGIGIFKDKFEVWGVGGTEEENKELQDLGVKILEYGSISGMSGKLLWEASRRGLKSYVILGETFGDRPDPRAAANVVEVLDRMLTLNVSVEPLLKEAEMIEEQLRKMHEQMEKARRSVEKQYETMYL,soluble
10,MENSHKRGRPDILHQALLVILTDPVIKGDIFIHTIQSKIIKVNPNMRPPKNYLRFIGLMEQLLKYGKIPINGDETLMEVTNLTLDNIVNRYDLILLSEKGEKINPEEICKLDEKWLLGIGAFPHGDFSDKILNLAKKIYSISGFPLETQQVLCRIFSACNS,soluble
11,MEPAAGSSMEPSADWLATAAARGRVEEVRALLEAGALPNAPNSYGRRPIQVMMMGSARVAELLLLHGAEPNCADPATLTRPVHDAAREGFLDTLVVLHRAGARLDVRDAWGRLPVDLAEELGHRDVARYLRAAAGGTRGSNHARIDAAEGPSDIPD,soluble
12,MEPGLDGGYLLLGVDWAINDKGDTVYRPVGLPDPDKVQRDLASQCASMLNVALRPEMQLEQVGGKTLLVVYVPEADVTHKPIYKKATGLPGGAYRRIGSSDQRCVDEDLWVLRGLEHHHHHH,not soluble
13,MEPVFKEPSPKKKRVENPPENAPDAPKKPQLKHESEFLRSIPSSSQYEKSFMHRDTISHVIATKTDFIITASVDGHLKFWKKKHSEGVEFVKHFRCHLSEFSHICANIDGTLLATVCEADKSVKVFDIENFDMINMIKLDFPPKTANWVHQSNDPIAHLAIGAADSGKIIVVDGKATAAPICIKDKLHSTPVKIIEYSQSLDIIVSIDESGMIECWNGERGDFQFPETKLTWEYKLETDLYDFVKAKTIPVCATFDPSGLKLATFAEDRKIRIFNVKTGKLAQLIDETTQKYHCEAKENKNYGLQHMEWSRRLASEKEMDKDKKNSLKYTKICFDQSGNFLLYPTPIGVKVFNLVTNEVSRTIGRDEAIRFVAVSLCNALPDIRQKLQGAAITLETAAADNPTLNRKTDPDPLMVCCALRKNRFYLFTNTEPYNVEDDEGNPSVSGRDVFNERPKKEDLLTALDTEGGEKVLNKEAIIHTSFGDITIRLFGDECPKTVENFCTHSRRGYYNGLTFHRVIKSFMIQTGDPSGKGTGGESIWGEDFEDEFHPRLRHDKPFKVSMANAGGGNTNGSQFFITVCPADWLDGKNTLFGEVTAGMSVVQRINQVSTFERSGRPRESIQIMSISLK,not soluble
14,MEQPQEEAPEVREEEEKEEVAEAEGAPELNGGPQHALPSSSYTDLSRSSSPPSLLDQLQMGCDGASCGSLNMECRVCGDKASGFHYGVHACEGCKGFFRRTIRMKLEYEKCERSCKIQKKNRNKCQYCRFQKCLALGMSHNAIRFGRMPEAEKRKLVAGLTANEGSQYNPQVADLKAFSKHIYNAYLKNFNMTKKKARSILTGKASHTAPFVIHDIETLWQAEKGLVWKQLVNGLPPYKEISVHVFYRCQCTTVETVRELTEFAKSIPSFSSLFLNDQVTLLKYGVHEAIFAMLASIVNKDGLLVANGSGFVTREFLRSLRKPFSDIIEPKFEFAVKFNALELDDSDLALFIAAIILCGGE,soluble
15,MERAGICHSDGFDLAYRIEGEGAPILVIGSAAYYPRLFSSDIKQKYQWVFVDHRGFAKPKRELRAEDSRLDAVLADIERMRTFLQLEDVTTLGHSGHAFMALEYARTYPKQVRKVALFNTAPDNSEERQRKSESFFMETASLERKKRFEKDIENLPQDIDKDPERRFVHMCIRAEAKSFYQERPHAAALWDGVFTNMPIIDELWGNTFARIDLLQRLADVRMPVYIGLGRYDYLVAPVSLWDAVDGLYPHVDKVIFEKSGHQPMLEEPEAFDQSFRKWLDQ,not soluble
16,MERHVPEPTHTLEGWHVLHDFRLLDFARWFSAPLEAREDAWEELKGLVREWRELEEAGQGSYGIYQVVGHKADLLFLNLRPGLDPLLEAEARLSRSAFARYLGRSYSFYSVVELGSQEKPLDPESPYVKPRLTPRVPKSGYVCFYPMNKRRQGQDNWYMLPAKERASLMKAHGETGRKYQGKVMQVISGAQGLDDWEWGVDLFSEDPVQFKKIVYEMRFDEVSARYGEFGPFFVGKYLDEEALRAFLGL,soluble
17,MERKALVTGGSRGIGRAIAEALVARGYRVAIASRNPEEAAQSLGAVPLPTDLEKDDPKGLVKRALEALGGLHVLVHAAAVNVRKPALELSYEEWRRVLYLHLDVAFLLAQAAAPHMAEAGWGRVLFIGSVTTFTAGGPVPIPAYTTAKTALLGLTRALAKEWARLGIRVNLLCPGYVETEFTLPLRQNPELYEPITARIPMGRWARPEEIARVAAVLCGDEAEYLTGQAVAVDGGFLAY,soluble
18,MERKLGISLYPEHSTKEKDMAYISAAARHGFSRIFTCLLSVNRPKEEIVAEFKEIINHAKDNNMEVILDVAPAVFDQLGISYSDLSFFAELGADGIRLDVGFDGLTEAKMTNNPYGLKIELNVSNDIAYLENILSHQANKSALIGCHNFYPQKFTGLPYDYFIRCSERFKKHGIRSAAFITSHVANIGPWDINDGLCTLEEHRNLPIEVQAKHLWATGLIDDVIIGNAYASEEELEKLGNLNRYMLQLKVHFVDEATEVEKRATLQELHVRRGDITEYMVRSTEVRKKYKDYDFPVRESVLQERGQVVIGNNSFGKYKGELQIILKEMPIDERKNIVGTIAEEELFLLDYVGAWTQFTCVE,soluble
19,MERTVKLRVKVDYKTYSALKEVEKEYREVLEEAINYGLSNKTTSFTRIKAGVYKTEREKHKDLPSHYIYTACEDASERLDSFEKLKRRGRSYTEKPSVRRVTIHLDDHLWKFNLDRISISTKRSRILISPTFPKIFWRYYNKGWRIASEARFKLLKGNVVEFYVIFKRDEPKPYEPKGFISVDLNENSVSVLVDGKPMLLETNTKRITLGYEYRRKAITTGKSTKDREVRRKLKRLRERNKKVDIRRKLAKLIVKEAFESRSVIVLEDLPRRTPEHMIKDVKDSQLRLRIYRAAFSSMKNAIIEKAREFGVPVVLVNPSHTSTVCPVHGTKIVYQLDGGDAPRVGVCEKGKEKWHRDVVALYNLARRAGDVSPVPLGSKESHDPPKRWLRAKSLHSIMNDHKMIEMKVLEHHHHHH,not soluble
20,MESKEERALNNLIVENVNQENDEKDEKEQVANKGEPLALPLNVSEYCVPRGNRRRFRVRQPILQYRWDIMHRLGEPQARMREENMERIGEEVRQLMEKLREKQLSHSLRAVSTDPPHHDHHDEFCLMP,soluble
21,MESLKSNLFLTREAYLEAFETIMTPLKTAILTSEKPGVNFGSSGAVYDQQHAEMEALIRPLWGIGPYWVTCKDDVLRDAYVEKLIAGTDPSSPDYWGVIVDYDQYIVEAAALSLTLLLHKTYFWSCFSEKQQENIMVWLNKALGCKIPKNNWTFFKVLIRLALEGCGQVINQAELEEELALIECMYLGDGWYMDGKTTQRDYYISFAFHYYSLIYVKFMRERDPIRAKRFTERAVMFAQDYLYYFDEEGEALPYGRSQTYRFAQGAFFAALIFAEVEALPWGQIKTLLAKHLHCWMQQAIFTYDGRLSIGYHYENLVMAEGYNAPGSPYWAFKTFLLLAVDQDHPFWRAEPLAIKREEKRLEHHHHHH,not soluble
22,MESVTRIKVRYAETDQMGVVHHSVYAVYLEAARVDFLERAGLPYHRVEARGVFFPVVELGLTFRAPARFGEVVEVRTRLAELSSRALLFRYRVEREGVLLAEGFTRHLCQVGERAARIPEDIYRALSVLHLK,soluble
23,METETATTPTGNTEPTAAASAEPPKSDKVTVRLRNIADAPVLKNKKMVVNPTDTVASFILKLRKLLNIQANNSLFLYIDNTFAPSPDTTFETLSRCYSVKITDKEILELQYSITPAYG,soluble
